Measurements: publication PMC8427195, “Dehydrogenation Mechanism of Three Stereoisomers of Butane-2,3-Diol in Pseudomonas putida KT2440” (Frontiers in Bioengineering and Biotechnology, 2021)

B1: R,R-BDH (PP0552), (2R,3R)-2,3-BDO dehydrogenase (Pseudomonas putida KT2440) (protein)
chain: MNDLSHTHMRAAVWHGRHDIRVEQVPLPADPAPGWVQIKVDWCGICGSDLHEYVAGPVFIPVEAPHPLTGIQGQCILGHEFCGHIAKLGEGVEGYAVGDPVAADACQHCGTCYYCTHGLYNICERLAFTGLMNNGAFAELVNVPANLLYRLPQGFPAEAGALIEPLAVGMHAVKKAGSLLGQTVVVVGAGTIGLCTIMCAKAAGAAQVIALEMSSARKAKAKEAGANVVLDPSQCDALAEIRALTAGLGADVSFECIGNKHTAKLAIDTIRKAGKCVLVGIFEEPSEFNFFELVSTEKQVLGALAYNGEFADVIAFIADGRLDIRPLVTGRIGLEQIVELGFEELVNNKEENVKIIVSPGVR

Columns and labels:
[1] = target: (2R,3R)-2,3-BDO dehydrogenase (PP0552) of Pseudomonas putida KT2440 (Pseudomonas putida KT2440); assay: SEC; Superdex 200 10/300 GL gel filtration; eluent 50 mM sodium phosphate pH 7.2, 150 mM sodium chloride, 0.5 mL min^-1; native molecular weight estimated against standard proteins and compared with the monomer mass
[2] = substrate: C[C@H](O)[C@@H](C)O; assay: purified protein; settings: oxidation with NAD+ (1 mM in general assay), 50 mM Tris-HCl pH 7.4, 30 °C
[3] = substrate: C[C@@H](O)[C@@H](C)O; assay: purified protein; settings: oxidation with NAD+ (1 mM in general assay), 50 mM Tris-HCl pH 7.4, 30 °C
[4] = substrate: NC(=O)C1=CN([C@@H]2O[C@H](COP(=O)(O)OP(=O)(O)OC[C@H]3O[C@@H](n4cnc5c(N)ncnc54)[C@H](O)[C@@H]3O)[C@@H](O)[C@H]2O)C=CC1; assay: purified protein; assay type: biochemical, Pseudomonas putida; settings: reductive direction, pH 7.4, 30 °C, apparent Km, varied: cofactor
[5] = substrate: NC(=O)c1ccc[n+]([C@@H]2O[C@H](COP(=O)(O)OP(=O)(O)OC[C@H]3O[C@@H](n4cnc5c(N)ncnc54)[C@H](O)[C@@H]3O)[C@@H](O)[C@H]2O)c1; assay: purified protein; assay type: biochemical, Pseudomonas putida; settings: oxidative direction, diol co-substrate not stated (10 mM in general assay), pH 7.4, 30 °C, varied: cofactor
[6] = substrate: CC(=O)C(C)O; assay: purified protein; assay type: biochemical, Pseudomonas putida; settings: reduction with NADH (0.2 mM in general assay), pH 7.4, 30 °C, apparent Km

Row | stoichiometry N [1] | Molecule | Km [2] [µM] | kcat [2] [s⁻¹] | kcat/Km [2] [M⁻¹ s⁻¹] | Km [3] [µM] | kcat [3] [s⁻¹] | kcat/Km [3] [M⁻¹ s⁻¹] | Km [4] [µM] | kcat [4] [s⁻¹] | kcat/Km [4] [M⁻¹ s⁻¹] | Km [5] [µM] | kcat [5] [s⁻¹] | kcat/Km [5] [M⁻¹ s⁻¹] | Km [6] [µM] | kcat [6] [s⁻¹] | kcat/Km [6] [M⁻¹ s⁻¹]
1 | 4 | (2R,3R)-2,3-BDO dehydrogenase (PP0552) of Pseudomonas putida KT2440 (enzyme) |  |  |  |  |  |  |  |  |  |  |  |  |  |  | 
2 |  | B1 | 251 ± 22 | 21.1 | 84300 | 155 ± 16 | 23.9 | 154000 | 119 ± 22 | 53.3 ± 5.16 | 454000 ± 36600 | 825 ± 96 | 52.8 ± 3.8 | 64300 ± 3120 | 101 ± 5 | 34.34 ± 0.256 | 341000 ± 16900
